Data set [1] concerns the target T1, LcTwinkle (Lates calcarifer, UniProt A0A4W6C5C5).
T1 construct: gene TWNK; shorter variant (primase-like NTD + helicase CTD), synthesized gene, modified pET28a, N-terminal His tag cut by PreScission; E. coli BL21(DE3); homo-hexamer (also heptamer)
T1 sequence (A0A4W6C5C5 128-683): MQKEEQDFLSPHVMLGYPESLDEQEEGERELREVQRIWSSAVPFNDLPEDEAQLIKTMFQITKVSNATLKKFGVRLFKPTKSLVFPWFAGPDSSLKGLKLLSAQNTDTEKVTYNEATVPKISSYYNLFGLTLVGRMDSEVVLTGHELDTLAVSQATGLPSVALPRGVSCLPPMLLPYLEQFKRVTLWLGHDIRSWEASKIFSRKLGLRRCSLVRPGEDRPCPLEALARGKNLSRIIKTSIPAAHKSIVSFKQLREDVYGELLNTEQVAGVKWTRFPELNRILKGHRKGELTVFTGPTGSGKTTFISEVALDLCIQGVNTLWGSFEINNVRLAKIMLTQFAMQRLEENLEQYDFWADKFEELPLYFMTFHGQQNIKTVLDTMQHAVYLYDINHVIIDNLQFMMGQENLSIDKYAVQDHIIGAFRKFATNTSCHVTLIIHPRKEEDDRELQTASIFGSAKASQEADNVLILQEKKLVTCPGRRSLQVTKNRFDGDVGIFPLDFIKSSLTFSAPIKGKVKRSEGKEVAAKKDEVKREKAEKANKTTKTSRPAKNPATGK
As to the kind of experiment: [gamma-32P]ATP TLC ATPase assay, Michaelis-Menten fit. To be noted: 12 mM MgCl2, 1 uM ssDNA, 150 mM KCl, pH 8.0, 20 °C; labelled compound as tracer. It counts as biochemical.

For data set [2], the target named is T2, LcTwinkle (Lates calcarifer, UniProt A0A4W6C5C5, E452Q).
T2 construct: gene TWNK; shorter variant (primase-like NTD + helicase CTD), synthesized gene, modified pET28a, N-terminal His tag cut by PreScission; E. coli BL21(DE3); homo-hexamer (also heptamer)
T2 sequence (A0A4W6C5C5 128-683 E452Q): T1 sequence (A0A4W6C5C5 128-683) with E325Q
Kind of data set: cryo-EM structure of LcTwinkle-ssDNA-ATP complex, […] Å. It counts as binding. The following applies: 1 mM ATP, 2 mM MgCl2, pH 8.0, five ATP at the subunit interfaces, one Mg2+ each.

The target of data set [3] is E325Q LcTwinkle (Lates calcarifer Twinkle helicase, active site mutant) (Lates calcarifer). As to the kind of experiment: cryo-EM structure; apo (DNA-free) classes found by 3D classification in the same sample prepared with ssDNA and ATP: LcTwinkle6 and LcTwinkle7 (8.5 A).
Data set [4] has the same target. As to the kind of experiment: cryo-EM structure; E325Q LcTwinkle with ssDNA (1:1.5), 1 mM ATP, 2 mM MgCl2, 50 mM Tris pH 8.0, 150 mM KCl, 3 mM DTT; DNA-bound classes (LcTwinkle-DNA 3.5 A, LcTwinkle-DNA2 7.5 A).
The target of data set [5] is WT LcTwinkle (Lates calcarifer Twinkle helicase) (Lates calcarifer). As to the kind of experiment: negative staining EM; 0.02 mg/ml Twinkle in 50 mM Tris pH 8.0, 150 mM KCl, 3 mM DTT, 1 mM ATP, 2 mM MgCl2, ssDNA at 1:2 relative to hexamers; uranyl acetate; 2D classification.
A further data set deals with T3, LcTwinkle R489A (Lates calcarifer, UniProt A0A4W6C5C5 128-683, R616A).
T3 sequence: T1 sequence (A0A4W6C5C5 128-683) with R489A
Kind of data set: fluorescence anisotropy; 0.5 mM ATP, 1 mM Mg2+; FA: 25 mM Tris-HCl pH 8.0, 150 mM KCl, 0.5 mM ATP, 1 mM MgCl2, 20 nM Cy5-ssDNA, temperature not stated; SEC/cryo-EM: 50 mM Tris pH 8.0, 150 mM KCl, 3 mM DTT, 1. To be noted: protein: recombinant; tags: N-terminal His tag, PreScission-cleaved; chain copies: 6; label: 5'-Cy5; single strand. In general terms: Fluorescence polarisation rises when a labelled molecule tumbles more slowly, as on binding a larger partner.

Another data set concerns the target T4, LcTwinkle H438A (Lates calcarifer, UniProt A0A4W6C5C5 128-683, H565A).
T4 sequence: T1 sequence (A0A4W6C5C5 128-683) with H438A
Described as above. To be noted: protein: recombinant; tags: N-terminal His tag, PreScission-cleaved; chain copies: 6; label: 5'-Cy5; single strand.

The next data set has as its target T5, LcTwinkle R440A (Lates calcarifer, UniProt A0A4W6C5C5 128-683, R567A).
T5 sequence: T1 sequence (A0A4W6C5C5 128-683) with R440A
Described as above. To be noted: protein: recombinant; tags: N-terminal His tag, PreScission-cleaved; chain copies: 6; label: 5'-Cy5; single strand.

The next data set concerns the target T6, LcTwinkle S456A (Lates calcarifer, UniProt A0A4W6C5C5 128-683, S583A).
T6 sequence: T1 sequence (A0A4W6C5C5 128-683) with S456A
The data set is described as above. The following applies: protein: recombinant; tags: N-terminal His tag, PreScission-cleaved; chain copies: 6; label: 5'-Cy5; single strand.

Another data set has as its target T7, LcTwinkle E325Q (Lates calcarifer, UniProt A0A4W6C5C5 128-683, E452Q).
T7 sequence: T1 sequence (A0A4W6C5C5 128-683) with E325Q
Kind of data set: cryo-EM structure (3.5 A); 1 mM ATP, 2 mM Mg2+; FA: 25 mM Tris-HCl pH 8.0, 150 mM KCl, 0.5 mM ATP, 1 mM MgCl2, 20 nM Cy5-ssDNA, temperature not stated; SEC/cryo-EM: 50 mM Tris pH 8.0, 150 mM KCl, 3 mM DTT, 1. The following applies: protein: recombinant; tags: N-terminal His tag, PreScission-cleaved; chain copies: 6; single strand.

Substitutions are numbered along the chain they refer to. Several values for one entry are separate records, joined by “and”; a condition that tells them apart may be missing. Identical values can stand only once.

Regarding `Nc1ncnc2c1ncn2[C@@H]1O[C@H](COP(=O)(O)OP(=O)(O)OP(=O)(O)O)[C@@H](O)[C@H]1O` [ATP], the KM result at LcTwinkle [1] is given as “The data were fitted to Michaelis–Menten equation with GraphPad”. The “cryo-EM structure of LcTwinkle-ssDNA-ATP complex, 3.5 Å” value on LcTwinkle [2] is “ATPase sites are located at each of the subunit interfaces (Figure 2A), and five ATP molecules”.

Usually stoichiometry N stands for a count of units in the complex or per binding partner. For “E325Q LcTwinkle (Lates calcarifer Twinkle helicase, active site mutant) (enzyme)”, the stoichiometry N in data set [3] is 6 and 7; in [4] it was 6.

Turning to “WT LcTwinkle (Lates calcarifer Twinkle helicase) (enzyme)”, the stoichiometry N in data set [5] was 6 and 7.

As to GGATTATTTACATTGGCAGATTCACC (ssDNA) [Cy5-ssDNA], the binding result with LcTwinkle R489A, in the data set with LcTwinkle H438A, in the data set with LcTwinkle R440A and with LcTwinkle S456A was “no binding” each time.

TGGTCTTTTTTTTTTTTTTTTTTTTTTTTT (ssDNA) [TGGTC-oligo(dT) ssDNA]: the binding result with LcTwinkle E325Q is given as “binds”.

Values taken from paper PMC9723800, “Structural and dynamic basis of DNA capture and translocation by mitochondrial Twinkle helicase” (Nucleic Acids Research, 2022).
